Assay: label from the status in PepcDB records

Row | Sequence | protein production
1 | MSQTSLEPLIISIIKLQILQLWLKLIAVGWNLGSNDDELYTELWKACAGPLVEVPRYGERVFYFPQGHMEQLVASTNQGVVDQEIPVFNLPPKILCRVLSVTLKAEHETDEVYAQITLQPEEDQSEPTSLDPPLVEPAKPTVDSFVKILTASDTSTHGGFSVLRKHATECLPSLDMTQPTPTQELVARDLHGYEWRFKHIFRGQPRRHLLTTGWSTFVTSKRLVAGDAFVFLRGETGDLRVGVRRLAKQQSTMPASVISSQSMRLGVLATASHAVTTTTIFVVFYKPRISQFIISVNKYMMAMKNGFSLGMRYRMRFEGEESPERIFTGTIIGSGDLSSQWPASKWRSLQIQWDEPSSIQRPNKVSPWEIEPFSPSALTPTPTQQQSKSKRSRPISEITGSPVASSFLSSFSQSHESNPSVKLLFQDPATERNSNKSVFSSGLQCKITEAPVTSSCRLFGFDLTSKPASATIPHDKQLISVDSNISDSTTKCQDPNSSNSPKEQKQQTSTRSRIKVQMQGTAVGRAVDLTLLRSYDELIKELEKMFEIEGELSPKDKWAIVFTDDEGDRMLVGDDPWNEFCKMAKKLFIYPSDEVKKMRSKSLLGDKGTIVNLESDQRTVHV | failed
2 | MSVPDNVYLIGTMNTADRSLAGLDIALRRRFDFVEMAPRPDKLTGVKVAEIDISAVLETMNRRIEVLLDREHRLGHAYFMSLENSNDLSRLSNIFRQQIIPLLQEYFFEDWQRIAWILNDHRKDERFRFIVPAPYSVDSLFGDTGQVAQDSKAWRMNEEAFHKPQSYLGLEHHHHHH | not failed
3 | MSKLKTIALTASGLSVCPGFLYAQNTSSHQIGLAIMRLNSSILDLPPTKQYFQSGSLWSELRQGFRMGEVNPELVRRHESKFIASHSYFNRVINRSRPYMYHIANEVKKRNMPAEAALLPFIESAFVTKAKSHVGASGLWQFMPATGRHYGLEKTPVYDGRHDIYAATDAALNYLQYLYGLFGDWPLAFAAYNWGEGNVGRAINRARAQGLEPTYENLRMPNETRNYVPKLLAVRNIIAAPQSFGMNISDIDNKPYFQAVEPDRPLDNEAIARLAGITQSELLALNPAFNVPAFIPKSKRKLLLPVASVQTFQSNYLNAAPDSLFSWEVYTPAAKTSLSDISTATGMSIADIKRLNNLNGNLVNAGRSILVAKNGKTLQTASESVVSIDIDNTPNTYRSNMPAGTVNVGIARIRPAAAQTADITVAPLPQKTVRTEPDPLVRIAEPALATAAAQPQTEKQTAMPSETQTATLAQIVPQNDMQAADELMQLVARNNLRRQAEETISAVIGTPDTVAEHNISSSPQHTVAADGKRRVRLETRVAKAADGEAEISPLHASIHRVVEGDTLFNIAKRYNVSVADLIVANNIKGNTIQKGQVLRLAQAAPAQTRIEKVSYTARKGDTFKSIAARFNIHIDDIRRLNPNLNTINPGQRVKLIGS | failed
4 | MIKILGHHISTLSITLALYETLIFMCVLYSFIFIMSFFFNIPVPEKLSMVILLALTATIAAGSLGLYNQRLFGDFKEFIWRIALTLPLILLAVLFVSFAYGEITATDQSPFYLAAAFGIPAALLLVVLGRGICFRIPGIKAFRRRILVLGTGEMADRLAALETSQPYRHYEIIGFVALGDDPAPLGEKWRVFDRNCIETRHDLLKICADHNINEVIFAASERRRANSSTFGLPVWDLLECRLMGIHVAEYASFWERETGRIDLDHLRPGWLIFSEGFRNSSRRMIAKRFFDVITALLLVILSLPVLVAAAIAVKLSSPGPVFYRQERVGVNGKPFNLIKFRSMPIDAEKNGPVWGTVKDKRATGVGSLLRRTRIDEIPQVFNVLRGDMSFIGPRPERPVFVEELSRELDFYGERHAVRPGISGWAQINYPYGASVADAKQKLSYDLYYIKNGSLFLDIIILFQTFRVVLWPEGSKEKAGAVVR | failed
5 | LADYSTEELEKIADKFRSDTSGIRGTKDFTSPEELYDELKKEIKKYHPSDDTSLVDKAYRVAYDAHKGQARKSGEPYIIHPLCVAIILAELELDKETIAAGLLHDVLEDTIMTMDEMRAEFGDDVAHLVDGVTKLKHLHLTDSTKDPKDKNADRLEMQAENLRKMFLAMAKDIRVILIKLADRLHNMRTLKYQSKEAQQRIARETQDIYCPIAQRLGISKIKIELEDLCMKYLYPDAYYDLVEKVALRKTERDTYIQGLVNDVKKYVSDAGIKAEIYGRAKHFFSIYKKMVNQDKTIDQIYDLFAIRILVDTIPDCYAVLGIIHEKYKPIPGRFKDYIAMPKQNMYQSLHTTLIGPSGQPFEIQIRTYEMHRTAEYGIAAHWKYKETNNGNATTTTVTEEEKLSWLRQILEWQQDMSDNKEFMTLLKSDLNLFSDNVFAFTPSGDVKNLPKGSTPIDFAYSIHSAVGNKMVGAKVNGKLVPIDYVIKNGDQIEIITSQNSKGPSRDWLKVVKSTQAKNKINQWFRSELKEENIQHGKDLIAAYAKAKGINFAEINKPEYQEKIRRKYGFHDWNSCLATVGHGGLKESQIVNRMYDEYKKDHVVPVTDADVLGSIAEKQQAAAGTQPEHKSKSGIVVHGLYDVAVHFSKCCNPVPGDEIVGFVTRGRGISIHRTDCVNIINLSKIEKDRLIEAEWQDTALMDNGAEYQADLKIFCHDRPGLLVDITKIFTEKEINISGIQSKTSKQGIATIEVFFNIKGRDQIKVLVEKLRQIESVIDVERTTG | failed
6 | PELPTCLTRRLADYATEKPLVRLFFQGEEATVPFISQTSRELNMDINILLANIDRFDGVTCGVLVVELTANPLLLEAFINRCEQAGITVEVLGYVLPDGL | not failed
7 | MDQLYQLAQAMIHNDLAVLSNPNVTLMVSGVILCFLVMENGFIPTAFLPGDTLLILTGVLIYQDVLHMGIVPLLMVATFIGTAIGYLQGYFLGHTQMYHRLLSHIDDKHQKKALYLIDKYGILTLLVARYIPFVRTIYPYIIGATGVSWSRFLVINFISSVMWITPLVGFGYVISHSKLANEYQTQFMSIIVYLPIVLLVSGIVTLIYKWLRKKKKL | failed
8 | LHYVHVGNKKSPNTLLFVHGSGCNLKIFGELEKYLEDYNCILLDLKGHGESKGQCPSTVYGYIDNVANFITNSEVTKHQKNITLIGYSMGGAIVLGVALKKLPNVRKVVSLSGGARFDKLDKDFMEKIYHNQLDNNYLLECIGGIDNPLSEKYFETLEKDPDIMINDLIACKLIDLVDNLKNIDIPVKAIVAKDELLTLVEYSEIIKKEVENSELKIFETGKHFLLVVNAKGVAEEIKNFI | failed
9 | MLKAYRYRIYPTKAQEEFFEKAFGCCRFVWNKMLEEKLEALKQGKKVPRITPARYKKEYPFLREVDSLALANVQMKQEKAFKDFFKNPKHFGIPKFKRKKDKQSYTTNNQQTKSGNETIRVDFEKGLLYLPKVKSGIKAVFHREFEGKIKSATVVKTKAGRYYVSILVDVQDPRNKEVNRIFENEITKRENFICGIDTGLISFVTIANDTGISKIEYPKYLIKAEKRLKRLQRQLSRKKEGSKNWEKARERLAKEYEYVKNSREDFLHKISKTIIDENQVVVVESLNVKGLSRTRLSKHILDSSWSKFLRYLKYKADWYGRKVIEADRSFPSSKMCSRCGYINKELKLKDRVWKCPKCKAVHDRDENAAKNLKNYGIAYIRNQ | failed
10 | IVISAFEQTLWRSEPETPLKVYQLLSGAHYRTSPLDLRRMMDAPGQHFLQAAGENEIAGALCLVDEGGLSQELSQAVWAGYRRPRGNLVAQSLAAHGSNPLAATLRGRRVSRIAVHPARQREGTGRQLIAGALQYIHDLDYLSVSFGYTEELWRFWQRCGFVLVRMGNHREASSGCYTAMALLPM | failed
11 | MPPGVAVCFSSLFIRLVCMAFLTSSDKALWHLALPMIFSNITVPLLGLVDTAVIGHLDSPVYLGGVAVGATATSFLFMLLLFLRMSTTGLTAQAYGAKNPQALARTLVQPLLLALGAGALIALLRTPIIDLALHIVGGSEAVLEQARRFLEIRWLSAPASLANLVLLGWLLGVQYARAPVILLVVGNILNIVLDVWLVMGLHMNVQGAALATVIAEYATLLIGLLMVRKILKLRGISGEMLKTAWRGNFRRLLALNRDIMLRSLLLQLCFGAITVLGARLGSDIIAVNAVLMTLLTFTAYALDGFAYAVEAHSGQAYGARDGSQLLDVWRAACRQSGIVALLFSVVYLLAGEHIIALLTSLTQIQQLADRYLIWQVILPVVGVWCYLLDGMFIGATRATEMRNSMAVAAAGFALTLLTLPWLGNHALWLALTVFLALRGLSLAAIWRRHWRNGTWFAAT | failed
12 | MRTATSTSPATGTPAPVPSRTPDVTVTVIVYNDAGRLPRAVASALRQSHANIEVVISDDHSTDATEEVARELAAHDPRVVYLRLPENSGGCSAPRNRALEIARAPYLMFLDSDDELPERAVEVLLAAHRERDLDFAMGAVHRIREDGGRRTTWMPHLVAERRTLDGIEADPRLLFEHLSTSKMYARAFLDRHGLRFPEGIHYEDQLFSAQAYCLAKTFTVVPEPVYRWYIAPYADADSASISNQRHKLTNVRDRVHVQRLIDAFLAESGHEALREDKDFKFLKHDFRMYAGDLPYRDDTWLASFADLMNPYLDTLAEGAYARLPRAERVVLRLLRDRRLSDVRTAARGLGHDVAPRRVTPDEQSGRVYWGEEVPASPESRRELDLTDLDLDTRPFFTALLRHEITEITRGPGASVDLTVRTYDPALRLPVGPQRAVLHLSPGPRRLTVPFRLSPVRPGLFEGRVRLDLAAARLPLHGFAGTRHPVLRLRHRGRTHTGILLAPLAFPPLTARVPYRTGLTPHRVTLRPEGHNPGRLQITWQPVGTTAKILGPAARRLSTPRTRRAARLLSNILRLEHHHHHH | not failed
13 | MPEITESERAYHLRKMKTRMQRVDVTGDGFISREDYELIAVRIAKIAKLSAEKAEETRQEFLRVADQLGLAPGVRISVEEAAVNATDSLLKMKGEEKAMAVIQSLIMYDCIDTDKDGYVSLPEFKAFLQAVGPDLTDDKAITCFNTLDFNKNGQISRDEFLVTVNDFLFGLEETALANAFYGDLVD | not failed
14 | MPAQTNLKPVLTAAQVNVLMETVYPQLNEQFKYYEAIDVFPGGCTVRLNAGERHLRPGGTVSGPSLFTLADIGGYVCVLSHAGPDALSVTVNLDINFVRKAEAGPIDGHCRILKLGKSLMVFAIDIVAGPEGQTIAHATGTYSIPPKRIGDVVK | failed
15 | TKEHRAAARKIAGESFVLLKNEGLSPTLAPVLPLSPTGTIAVIGPLANTRSNMPGTWSVAAVLDKSPSLVEGLTEWVGNQGKILYAKGSNLIGDAAYEERATMFGRSLNRDNRTDQQLLDEALKIASQADVIVAALGESSEMSGESSSRTNLNLPDVQHTLLEALLKTGKPVVLVLFTGRPLVLNWEQEHVPAILNVWFGGSEAGPAIGDVLFGAVNPGGKLTMTFPKSVGQIPLYYAHKNTGRPLKEGKWFEKFRSNYLDVDNDALYPFGYGLSYTTF | failed
16 | LGNEDFNSVIQQMAQGRQIEYIDIERPSTGGLGFSVVALRSQNLGKVDIFVKDVQPGSVADRDQRLKENDQILAINHTPLDQNISHQQAIALLQQTTGSLRLIVAREPVHTKSST | not failed
17 | MTTYLIIGANRVGQLVARQLATESATVRLLHDGKETLPSDLATQVTELTGDLTQEATYTAALQDQPIIFSALTGMDVDLAFEALFDAQYHQRLTFQRFVMLSTAGVDQEVTGDLAYPGITDVAEYLKQQRYAAKLVDEAEFPYTILRPVTLADSPRRDPQIIKEGAAVPAGTVSRETVAQVAVSLLQAGGADYQSLAICLEHHHHHH | failed

From a protein production outcome set (Wang et al. 2014)
